The experiment has as its target SeTau-405 fluorescently labeled BOA (Burkholderia oklahomensis). As to the kind of experiment: other fluorescence titration.

In the case of “SARS-CoV-2 Spike protein (Hexapro S) (from UniProt P0DTC2) (natural protein)”, the half-saturation point fell in the range of 30 to 60 nM.

For the origin of these results see PMC9810211.
